The values that follow come from US20240261333A1, “NOVEL TARGETS FOR ENHANCING ANTI-TUMOR IMMUNITY” (THE BROAD INSTITUTE, INC., priority 2021, published 2024).

This test concerns the target T1, B3GNT2 (Homo sapiens, UniProt Q9NY97).
T1 construct: The respective ORFs of candidate genes [CD274 (NM_014143), MCL1 (NM_021960), JUNB (NM_002229), and B3GNT2 (NM_006577)] were synthesized; expressed in transfected cells; host or cells: A375 melanoma cells (lentiviral ORF overexpression)
T1 sequence (Q9NY97 1-397): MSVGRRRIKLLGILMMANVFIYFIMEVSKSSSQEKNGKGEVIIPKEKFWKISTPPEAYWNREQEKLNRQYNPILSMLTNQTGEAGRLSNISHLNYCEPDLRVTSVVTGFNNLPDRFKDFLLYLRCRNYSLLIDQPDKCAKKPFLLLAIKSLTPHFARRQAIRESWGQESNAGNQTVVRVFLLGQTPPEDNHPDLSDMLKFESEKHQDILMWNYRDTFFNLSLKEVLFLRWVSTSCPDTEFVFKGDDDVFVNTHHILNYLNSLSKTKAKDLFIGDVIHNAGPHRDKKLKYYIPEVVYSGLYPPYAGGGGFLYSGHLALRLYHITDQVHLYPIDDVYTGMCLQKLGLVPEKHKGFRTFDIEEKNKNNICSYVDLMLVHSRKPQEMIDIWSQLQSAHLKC
The test is described as follows: Co-IP of FLAG-tagged B3GNT2 followed by mass spectrometry. It counts as cell-based. Also noted: C-term IgG / C-term flag: unit not given here. The method in brief: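 FLAG-tagged B3GNT2 immunoprecipitated from cell lysate (HEPES, 1% Triton X-100, 150 mM NaCl) with anti-FLAG versus […], overnight at 4° C, then captured on Protein A/G magnetic beads for 4 h. Two biological replicates per condition. Peptides fractionated and analyzed by nano-LC on an Orbitrap Elite in data-dependent mode.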

Where [1] appears, read: Co-IP followed by mass spectrometry of B3GNT2, C-term tag, FLAG pull-down.
The mark [2] stands for this setting: Co-IP followed by mass spectrometry of B3GNT2, C-term tag, IgG pull-down.
Setting [3] is: Co-IP followed by mass spectrometry of B3GNT2, N-term tag, FLAG pull-down.
The mark [4] stands for this setting: Co-IP followed by mass spectrometry of B3GNT2, N-term tag, IgG pull-down.

B1: ATXN2 (protein)
chain: MRSAAAAPRSPAVATESRRFAAARWPGWRSLQRPARRSGRGGGGAAPGPYPSAAPPPPGPGPPPSRQSSPPSASDCFGSNGNGGGAFRPGSRRLLGLGGPPRPFVVLLLPLASPGAPPAAPTRASPLGARASPPRSGVSLARPAPGCPRPACEPVYGPLTMSLKPQQQQQQQQQQQQQQQQQQQQQQQPPPAAANVRKPGGSGLLASPAAAPSPSSSSVSSSSATAPSSVVAATSGGGRPGLGRGRNSNKGLPQSTISFDGIYANMRMVHILTSVVGSKCEVQVKNGGIYEGVFKTYSPKCDLVLDAAHEKSTESSSGPKREEIMESILFKCSDFVVVQFKDMDSSYAKRDAFTDSAISAKVNGEHKEKDLEPWDAGELTANEELEALENDVSNGWDPNDMFRYNEENYGVVSTYDSSLSSYTVPLERDNSEEFLKREARANQLAEEIESSAQYKARVALENDDRSEEEKYTAVQRNSSEREGHSINTRENKYIPPGQRNREVISWGSGRQNSPRMGQPGSGSMPSRSTSHTSDFNPNSGSDQRVVNGGVPWPSPCPSPSSRPPSRYQSGPNSLPPRAATPTRPPSRPPSRPSRPPSHPSAHGSPAPVSTMPKRMSSEGPPRMSPKAQRHPRNHRVSAGRGSISSGLEFVSHNPPSEAATPPVARTSPSGGTWSSVVSGVPRLSPKTHRPRSPRQNSIGNTPSGPVLASPQAGIIPTEAVAMPIPAASPTPASPASNRAVTPSSEAKDSRLQDQRQNSPAGNKENIKPNETSPSFSKAENKGISPVVSEHRKQIDDLKKFKNDFRLQPSSTSESMDQLLNKNREGEKSRDLIKDKIEPSAKDSFIENSSSNCTSGSSKPNSPSISPSILSNTEHKRGPEVTSQGVQTSSPACKQEKDDKEEKKDAAEQVRKSTLNPNAKEFNPRSFSQPKPSTTPTSPRPQAQPSPSMVGHQQPTPVYTQPVCFAPNMMYPVPVSPGVQPLYPIPMTPMPVNQAKTYRAVPNMPQQRQDQHHQSAMMHPASAAGPPIAATPPAYSTQYVAYSPQQFPNQPLVQHVPHYQSQHPHVYSPVIQGNARMMAPPTHAQPGLVSSSATQYGAHEQTHAMYACPKLPYNKETSPSFYFAISTGSLAQQYAHPNATLHPHTPHPQPSATPTGQQQSQHGGSHPAPSPVQHHQHQAAQALHLASPQQQSAIYHAGLAPTPPSMTPASNTQSPQNSFPAAQQTVFTIHPSHVQPAYTNPPHMAHVPQAHVQSGMVPSHPTAHAPMMLMTTQPPGGPQAALAQSALQPIPVSTTAHFPYMTHPSVQAHHQQQL
Under setting [1], B1 gave a C-term flag of 3. Under setting [2], the “C-term IgG” value is 3. The “N-term FLAG” value under setting [3] was found to be 4. Moreover, under setting [4], the “N-term IgG” value worked out at 3.

B2: MOV10 (protein)
chain: MPSKFSCRKLRETGQRFESFLAERGLDLETDRERLRTIYNHDFKPSYGTPAPGFSSMLYGMKIANLAFVTKTRVRFFKLDRWADVQLPEKRRIKPGSNISKQHRSLLARIFHDRAEYLHGKHGVDVEVQGPHEARDGQLLIHLDLNRKEVLTLRLRNGGSKPVTLTHLFPLCWTPQFVFYHGEQDLPCPLGPGESYELHIYCKTSIVGYFPATVLWELLGPGESGAEGAETFYIARFLAAVAHSPLAAQLKPTTPFKRPPRLTRNSVLTNRIEEGERPDRAKGYELELSLALGTYYPPILLRQLLPTLLQGPSIFTAPKEVAEIKAQLETTLKSRNYEVKLRLLLHLEELQMEHDIRHYDLDSVPMTWDPVDQNPRLLTLEVPGVAESRPSVLRGDHLFALLSSETQQDDPVTYKGFVHKVELDRVKLSFSTSLLSRFVDGLTFKVNFTFNRQPLRVQHRALELTGRWVLWPMLFPVASRGVSLLPSDVKFKLYDRSLESNPEQLQAMKHIVRGTTRPAPYIIFGPPGTGKTVTLVEAIKQVVKHLPKAHILACAPSNSGADLLCQRLRVHLPSSIYRLLAPSRDIRMVPEDIKTCCNWDAKKGEYVYPAKKHLQQYRVLITTLITASRLVSAQFPIDHFTHIFIDEAGHCMEPESLVAIAGLMDVKETGNPGGQLVLAGDPRQLGPVLRSPLALKHGLGYSLLERLLAYNSLYKKGPNGYDPQFITKLLRNYRSHPTILDIPNQLYYDGELQACADVVDRERFCRWEGLPQQGFPIIFHGVMGKDEREGNSPSFFNPEEAATVTSYLKQLLAPSSKKGKARLSPRNVGVISPYRKQVEKIRYCITKLDRELRGLDDIKDLKVGSVEEFQGQERSVILISTVRSSQSFVQLDLDFNLGFLKNPKRFNVAVTRAKALLIVVGNPLLLGHDPDWKTFLEFCKENGGYTGCPFPAKLDLQQGQDLLQGLSKLSPSTSGPRRHQNLPQEREGEGGLPLQVEPEWRNEL
In turn, B2 had a C-term flag under setting [1] of 3. Further, the “C-term IgG” value under setting [2] is 3. The “N-term FLAG” value under setting [3] turned out to be 4. Also, under setting [4], the “N-term IgG” value came to 3.

B3: SLC25A6 (protein)
chain: MTEQAISFAKDFLAGGIAAAISKTAVAPIERVKLLLQVQHASKQIAADKQYKGIVDCIVRIPKEQGVLSFWRGNLANVIRYFPTQALNFAFKDKYKQIFLGGVDKHTQFWRYFAGNLASGGAAGATSLCFVYPLDFARTRLAADVGKSGTEREFRGLGDCLVKITKSDGIRGLYQGFSVSVQGIIIYRAAYFGVYDTAKGMLPDPKNTHIVVSWMIAQTVTAVAGVVSYPFDTVRRRMMMQSGRKGADIMYTGTVDCWRKIFRDEGGKAFFKGAWSNVLRGMGGAFVLVLYDELKKVI
B3: for the setting “Co-IP with FLAG antibody, C-terminally FLAG-tagged B3GNT2, mass spectrometry count, unit not given”, the C-term flag is reported as 19. The “N-term FLAG” value (Co-IP with FLAG antibody, N-terminally FLAG-tagged B3GNT2, mass spectrometry count, unit not given) is reported as 15. Besides, the “C-term IgG” value (Co-IP with IgG control antibody, C-terminally FLAG-tagged B3GNT2, mass spectrometry count, unit not given) is listed as 0. Also, the “N-term IgG” value (Co-IP with IgG control antibody, N-terminally FLAG-tagged B3GNT2, mass spectrometry count, unit not given) came to 0.

B4: CAT (protein)
chain: ADSRDPASDQMQHWKEQRAAQKADVLTTGAGNPVGDKLNVITVGPRGPLLVQDVVFTDEMAHFDRERIPERVVHAKGAGAFGYFEVTHDITKYSKAKVFEHIGKKTPIAVRFSTVAGESGSADTVRDPRGFAVKFYTEDGNWDLVGNNTPIFFIRDPILFPSFIHSQKRNPQTHLKDPDMVWDFWSLRPESLHQVSFLFSDRGIPDGHRHMNGYGSHTFKLVNANGEAVYCKFHYKTDQGIKNLSVEDAARLSQEDPDYGIRDLFNAIATGKYPSWTFYIQVMTFNQAETFPFNPFDLTKVWPHKDYPLIPVGKLVLNRNPVNYFAEVEQIAFDPSNMPPGIEASPDKMLQGRLFAYPDTHRHRLGPNYLHIPVNCPYRARVANYQRDGPMCMQDNQGGAPNYYPNSFGAPEQQPSALEHSIQYSGEVRRFNTANDDNVTQVRAFYVNVLNEEQRKRLCENIAGHLKDAQIFIQKKAVKNFTEVHPDYGSHIQALLDKYNAEKPKNAIHTFVQSGSHLAAREKANL
The molecule B4 yielded a C-term flag under setting [1] of 0. For the same molecule, the “C-term IgG” value under setting [2] turned out to be 3. Moreover, the “N-term FLAG” value under setting [3] was found to be 6. For the same molecule, the “N-term IgG” value under setting [4] is reported as 2.

B5: DNAJC3 (protein)
chain: GVNADVEKHLELGKKLLAAGQLADALSQFHAAVDGDPDNYIAYYRRATVFLAMGKSKAALPDLTKVIQLKMDFTAARLQRGHLLLKQGKLDEAEDDFKKVLKSNPSENEEKEAQSQLIKSDEMQRLRSQALNAFGSGDYTAAIAFLDKILEVCVWDAELRELRAECFIKEGEPRKAISDLKAASKLKNDNTEAFYKISTLYYQLGDHELSLSEVRECLKLDQDHKRCFAHYKQVKKLNKLIESAEELIRDGRYTDATSKYESVMKTEPSIAEYTVRSKERICHCFSKDEKPVEAIRVCSEVLQMEPDNVNALKDRAEAYLIEEMYDEAIQDYETAQEHNENDQQIREGLEKAQRLLKQSQKRDYYKILGVKRNAKKQEIIKAYRKLALQWHPDNFQNEEEKKKAEKKFIDIAAAKEVLSDPEMRKKFDDGEDPLDAESQQGGGGNPFHRSWNSWQGFNPFSSGGPFRFKFHFN
As to B5, under setting [1], the C-term flag is on record as 3. Further, under setting [2], the “C-term IgG” value came out at 0. Besides, the “N-term FLAG” value under setting [3] was 0. Further, the “N-term IgG” value under setting [4] was determined as 0.

B6: FUBP3 (protein)
chain: AELVQGQSAPVGMKAEGFVDALHRVRQIAAKIDSIPHLNNSTPLVDPSVYGYGVQKRPLDDGVGNQLGALVHQRTVITEEFKVPDKMVGFIIGRGGEQISRIQAESGCKIQIASESSGIPERPCVLTGTPESIEQAKRLLGQIVDRCRNGPGFHNDIDSNSTIQEILIPASKVGLVIGRGGETIKQLQERTGVKMVMIQDGPLPTGADKPLRITGDAFKVQQAREMVLEIIREKDQADFRGVRGDFNSRMGGGSIEVSVPRFAVGIVIGRNGEMIKKIQNDAGVRIQFKPDDGISPERAAQVMGPPDRCQHAAHIISELILTAQERDGFGGLAAARGRGRGRGDWSVGAPGGVQEITYTVPADKCGLVIGKGGENIKSINQQSGAHVELQRNPPPNSDPNLRRFTIRGVPQQIEVARQLIDEKVGGTNLGAPGAFGQSPFSQPPAPPHQNTFPPRSSGCFPNMAAKVNGNPHSTPVSGPPAFLTQGWGSTYQAWQQPTQQVPSQQSQPQSSQPNYSKAWEDYYKKQSHAASAAPQASSPPDYTMAWAEYYRQQVAFYGQTLGQAQAHSQEQ
Under setting [1], B6 came in with a C-term flag of 9. Further, the “C-term IgG” value under setting [2] was 7. For the same molecule, the “N-term FLAG” value under setting [3] stood at 8. Further, the “N-term IgG” value under setting [4] is on record as 8.

B7: LSM12 (protein)
chain: AAPPGEYFSVGSQVSCRTCQEQRLQGEVVAFDYQSKMLALKCPSSSGKPNHADILLINLQYVSEVEIINDRTETPPPLASLNVSKLASKARTEKEEKLSQAYAISAGVSLEGQQLFQTIHKTIKDCKWQEKNIVVMEEVVITPPYQVENCKGKEGSALSHVRKIVEKHFRDVESQKILQRSQAQQPQKEAALSS
B7 had a C-term flag under setting [1] of 4. In addition, the “C-term IgG” value under setting [2] was 0. Further, the “N-term FLAG” value under setting [3] is 4. Also, under setting [4], the “N-term IgG” value was 2.
